The text below walks through data of patent US6872703B2, “Insulin receptor-related receptor binding protein” (Ajinomoto Co., Inc., priority 2000, dated 2005).

Experiment [1] addresses T1, insulin receptor-related receptor (IRR), IRR-Fc fusion protein (extracellular region of mouse IRR) (Mus musculus, UniProt Q9WTL4).
T1 construct: with an extracellular region of mouse IRR (1-920th residues); made in house; host or cells: CHO cells
T1 sequence (Q9WTL4 27-920): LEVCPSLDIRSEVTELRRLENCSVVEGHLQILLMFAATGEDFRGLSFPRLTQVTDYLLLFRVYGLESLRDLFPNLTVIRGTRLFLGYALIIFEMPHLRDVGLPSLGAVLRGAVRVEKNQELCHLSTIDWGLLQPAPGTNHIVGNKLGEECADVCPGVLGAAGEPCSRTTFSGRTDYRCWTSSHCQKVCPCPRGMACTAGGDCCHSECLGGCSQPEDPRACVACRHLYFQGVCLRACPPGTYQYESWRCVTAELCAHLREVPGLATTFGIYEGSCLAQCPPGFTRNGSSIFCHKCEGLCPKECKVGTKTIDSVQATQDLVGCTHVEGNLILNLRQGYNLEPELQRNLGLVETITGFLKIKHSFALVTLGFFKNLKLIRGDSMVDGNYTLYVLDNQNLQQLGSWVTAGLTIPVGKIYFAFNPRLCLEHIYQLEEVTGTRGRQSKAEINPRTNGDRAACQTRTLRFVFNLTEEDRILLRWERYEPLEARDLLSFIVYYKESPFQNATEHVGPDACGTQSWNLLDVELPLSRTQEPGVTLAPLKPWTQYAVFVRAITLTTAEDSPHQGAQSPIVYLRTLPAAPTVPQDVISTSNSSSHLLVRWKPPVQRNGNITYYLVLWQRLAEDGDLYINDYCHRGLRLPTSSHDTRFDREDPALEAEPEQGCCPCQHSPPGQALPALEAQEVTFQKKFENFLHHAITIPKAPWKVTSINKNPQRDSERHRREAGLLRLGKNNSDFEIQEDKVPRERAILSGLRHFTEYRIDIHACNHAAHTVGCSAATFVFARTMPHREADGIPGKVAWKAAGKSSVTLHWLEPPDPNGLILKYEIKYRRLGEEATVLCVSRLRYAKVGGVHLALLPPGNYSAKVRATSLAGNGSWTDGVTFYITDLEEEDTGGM
The experiment is described as follows: IRR binding activity by surface plasmon resonance (BIACORE 2000), IRR-Fc binding value minus IR-Fc binding value. Particulars: about 1/10 amount of each re-purified specimen (about 10 μg) lyophilized and dissolved in 200 μl of buffer; IR-Fc binding value subtracted from IRR-Fc binding value. The source says: Determination of active fractions in the purification of the IRR ligand from a supernatant of cells expressing the IRR ligand including the rat C6 glioma cells or identification of granulins/epithelins or mutants thereof as IRR ligands can be carried out by measuring activity for binding to IRR in a sample. The binding activity to IRR of a sample specimen can be measured by using a surface plasmon resonance (SPR) measuring apparatus, for example, BIACORE (produced by Biacore). Specifically, for example, the extracellular domain of IRR is prepared as a soluble protein and immobilized on a surface of a BIACORE sensor chip. A sample specimen is sent onto the surface of the sensor chip via a micro flow system at a constant flow rate. If a molecule binding to IRR (IRR ligand) is contained in the sample specimen, the mass of the surface sensor chip is increased due to binding between IRR and IRR ligand molecules, and a shift of the SPR signal in proportion to the binding quantity can be detected as a change in the resonance unit (RU). […] When, for example, an insulin receptor (IR) protein is used as a protein other than IRR, IRR-binding activity can be measured more precisely. […]
In general terms: Surface plasmon resonance follows binding to a sensor surface in real time, without labels.

In experiment [2] the target is IRR (Homo sapiens, UniProt P14616). To be noted: literature report; cited from earlier work.
Sequence of IRR (P14616 27-742 limits assumed, species assumed): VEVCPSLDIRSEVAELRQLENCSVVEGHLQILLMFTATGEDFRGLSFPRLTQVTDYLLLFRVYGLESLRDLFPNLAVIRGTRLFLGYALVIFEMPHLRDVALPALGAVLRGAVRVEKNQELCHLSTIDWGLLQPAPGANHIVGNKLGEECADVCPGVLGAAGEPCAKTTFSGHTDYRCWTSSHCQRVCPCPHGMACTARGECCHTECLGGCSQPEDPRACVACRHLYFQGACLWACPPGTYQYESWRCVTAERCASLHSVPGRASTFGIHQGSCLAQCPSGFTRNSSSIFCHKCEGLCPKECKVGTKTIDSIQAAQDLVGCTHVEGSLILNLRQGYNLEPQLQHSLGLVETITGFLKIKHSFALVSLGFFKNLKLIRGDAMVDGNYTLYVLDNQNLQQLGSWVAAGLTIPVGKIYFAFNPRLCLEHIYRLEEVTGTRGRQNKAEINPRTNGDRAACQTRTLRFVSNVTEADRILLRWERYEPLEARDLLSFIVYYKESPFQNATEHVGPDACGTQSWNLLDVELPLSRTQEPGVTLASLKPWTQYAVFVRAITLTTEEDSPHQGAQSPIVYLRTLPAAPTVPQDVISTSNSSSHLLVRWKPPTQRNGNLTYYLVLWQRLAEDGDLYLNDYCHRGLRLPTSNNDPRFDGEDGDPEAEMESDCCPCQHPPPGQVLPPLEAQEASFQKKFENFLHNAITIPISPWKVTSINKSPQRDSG
Sequence of IRR (P14616 747-1297 limits assumed, species assumed): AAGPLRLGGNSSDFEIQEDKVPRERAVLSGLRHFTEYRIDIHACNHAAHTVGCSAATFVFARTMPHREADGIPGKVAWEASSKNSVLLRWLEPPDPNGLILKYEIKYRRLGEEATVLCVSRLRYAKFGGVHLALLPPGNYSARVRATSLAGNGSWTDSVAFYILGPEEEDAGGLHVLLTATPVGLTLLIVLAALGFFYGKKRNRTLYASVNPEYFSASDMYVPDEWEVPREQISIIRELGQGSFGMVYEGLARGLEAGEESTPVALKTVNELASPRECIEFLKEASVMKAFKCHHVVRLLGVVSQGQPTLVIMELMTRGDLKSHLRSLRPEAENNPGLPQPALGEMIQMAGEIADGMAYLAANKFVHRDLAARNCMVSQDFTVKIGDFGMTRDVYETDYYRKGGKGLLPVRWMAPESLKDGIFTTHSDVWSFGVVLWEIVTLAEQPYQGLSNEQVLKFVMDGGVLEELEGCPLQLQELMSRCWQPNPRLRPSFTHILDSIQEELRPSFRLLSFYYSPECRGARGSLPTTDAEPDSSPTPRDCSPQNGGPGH

Consider “Peak 2: Re-purified IRR ligand fraction from rat C6 cell supernatant; protein of molecular weight 6135, SEQ ID NO: 4 (epithelin/granulin) (IGCDQHTSCPVGQTCCPSLKGSWACCQLPHAVCCEDRQHCCPAGYTCNVKARTCEKQ; listed as Mus musculus)”, for which, in experiment [1], the “binding activity (IRR-specific binding value, SPR resonance units)” value is reported as 21 RU.

For the molecule “insulin-like growth factor (IGF)-1 [IGF-1]”, the “binding to IRR” value in experiment [2] is “cannot bind to IRR”.

With insulin, the “binding to IRR” value in experiment [2] is “cannot bind to IRR”.

B1: Peak 1: Re-purified IRR ligand fraction from rat C6 cell supernatant; proteins of molecular weights 6250 and 6321, SEQ ID NOS: 5 and 6 (epithelin/granulin) (protein, listed as Mus musculus)
chain 1: DIGCDQHTSCPVGQTCCPSLKGSWACCQLPHAVCCEDRQHCCPAGYTCNVKARTCEKN
chain 2: DIGCDQHTSCPVGQTCCPSLKGSWACCQLPHAVCCEDTQHCCPAGYTCNVKARTCEKDA
For B1, the “binding activity (IRR-specific binding value, SPR resonance units)” value in experiment [1] came to 13 RU.
